# Reference: paper PMC6045629
# Molecular target: sc E183-HLA-A2 A245V (HBV | human)
substance,measurement,value
CD8 coreceptor (from UniProt P01732 22-235),reduction of IFN-γ production of human E183 CTL after 3 h with T-REx CHO cells expressing the mutant antigen,25%
